Source: PMC8034803
Where two headings read alike, the source gives them in different places.

How the values were obtained:
PABP1 (Homo sapiens) = PABP1 (Homo sapiens) (UniProt P11940); details: cited from earlier work
WT NS1-RBD = WT NS1-RBD (Influenza A virus A/Udorn/307/1972 …, UniProt P03495 1-73); assay: fluorescence anisotropy
PABP1 [1] = target: T1, PABP1 (human, UniProt P11940 1-636); assay: EMSA
PABP1 [2] = target: T1, PABP1; assay: EMSA; remark: listed apart in the source
PABP1 [3] = target: T1, PABP1; assay: EMSA; remark: listed apart in the source

T1 sequence (P11940 whole entry): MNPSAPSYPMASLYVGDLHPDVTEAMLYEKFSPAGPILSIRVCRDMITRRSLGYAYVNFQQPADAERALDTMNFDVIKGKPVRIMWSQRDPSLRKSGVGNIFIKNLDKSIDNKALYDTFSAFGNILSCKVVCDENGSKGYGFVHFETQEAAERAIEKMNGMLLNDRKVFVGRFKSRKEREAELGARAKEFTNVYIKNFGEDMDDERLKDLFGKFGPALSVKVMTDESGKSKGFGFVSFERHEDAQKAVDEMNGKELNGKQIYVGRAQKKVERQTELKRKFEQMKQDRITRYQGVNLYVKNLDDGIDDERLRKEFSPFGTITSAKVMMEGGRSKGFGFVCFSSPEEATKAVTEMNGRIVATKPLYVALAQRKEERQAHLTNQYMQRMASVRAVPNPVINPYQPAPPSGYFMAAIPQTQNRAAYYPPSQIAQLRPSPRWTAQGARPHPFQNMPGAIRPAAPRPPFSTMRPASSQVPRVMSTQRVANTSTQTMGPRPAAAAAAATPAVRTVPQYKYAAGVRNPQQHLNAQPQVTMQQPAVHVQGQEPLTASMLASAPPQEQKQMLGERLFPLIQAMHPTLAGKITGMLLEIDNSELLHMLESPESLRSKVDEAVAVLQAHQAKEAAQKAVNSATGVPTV
PABP1 (Homo sapiens), sequence (P11940 whole entry): as above
WT NS1-RBD, sequence (P03495 1-73): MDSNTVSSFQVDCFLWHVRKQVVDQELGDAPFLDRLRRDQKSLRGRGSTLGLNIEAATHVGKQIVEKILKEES

Q: For NS1 (from UniProt Q8QPI8), which Kd (PABP1 (Homo sapiens)) is on record?
A: The Kd was 20 nM.

B1: dsRK1 (dsRNA)
RNA 1: CCAUCCUCUACAGGCG
RNA 2: CGCCUGUAGAGGAUGG
Q: For B1, which Kd (WT NS1-RBD) is on record?
A: Its Kd is 76 ± 9 nM.

B2: poly(A)18 (ssRNA)
RNA: AAAAAAAAAAAAAAAAAA
Q: Does B2 bind (PABP1 [1])?
A: Result: binds

B3: ssCR1 (ssRNA)
RNA: GCUAUCCAGAUUCUGAUU
Q: Does B3 bind (PABP1 [2])?
A: Result: no binding

B4: poly(A)60 (ssRNA)
RNA: AAAAAAAAAAAAAAAAAAAAAAAAAAAAAAAAAAAAAAAAAAAAAAAAAAAAAAAAAAAA
Q: Does B4 bind (PABP1 [3])?
A: Result: binds
